From the DeepSol protein solubility set

Assay: soluble on expression in E. coli; label from the status in PepcDB or PDB records

With “MGSDKIHHHHHHMKLISVKRIWEQGAHNAFTDLIRFQGALFCVFREGTAHVSPDGALRILRSADLGDTWQSVALIRSDEADLRDGKLIEYQGELLLLGGGTLHDKSGLQSHLWRSLDGLVWSDALKIGDKGYWLWRLTEYQNALYGVGYRAGPDGDTRLYKSDDGVQFETWLMVFNNQGYVNESAIVFDQDNGFCLLRRDPVWGPEYVGLLGCSQAPFIDWQWQELDKRIGGPVMLMYQSRLLAVVRLYDEQVRTALVEIHPDTGVVQELLTLPSKGDTSYAGVVIDGNELWVSYYSSHEIANAQLDAQNVQNESSISTQAKTMIYFAKIQLVGEF” as the sequence, how does the “soluble on expression in E. coli” value read?
The value was “not soluble”.

For “MRNSTDYSPLYRSFIGFDHLASLIDKASQPGKQSSYPPYNIELLAENQYRITMAVAGFREEDIDIESKDNGLIIVGTKQPPANSTQESEATTRHFLHQGIAERNFERKFQLGEHVKVIGAFMENGLLHVDLEREIPEALKSRKIAINGKSLLNGNS”, which “soluble on expression in E. coli” value is on record?
Its value is “not soluble”.

Which “soluble on expression in E. coli” value does the source give for “MGSSHHHHHHSQDPLVPRGSGSDYIIKEKTVLLQKKDSEGFGFVLRGAKAQTPIEEFTPTPAFPALQYLESVDEGGVAWRAGLRMGDFLIEVNGQNVVKVGHRQVVNMIRQGGNTLMVKVVMVTRHPDMDEA” here?
Its value is “soluble”.

With “MGSDKIHHHHHHMLSKLWKRQAPQMVGIDIGSHEIKAILLSKTADGYKIQNHASVPVRKGAVVDHDIRDTEAVIESLRQIRRGLPKSLKFAAVAVSGSAVMTKVIYMDAALNEEEMEAQIEIEADNLIPYSLDEVSIDFERLNPNITDPTKVNVLLSACRTENIDSRVDSLDAIELDVKVVDVEAYALGRSAELIYAQLPDGAKAKSIAMVDIGANMTTFSVVENGDTTFIREQAFGGELFTQSIVSFYGMPHDEAERAKISGQLPRNYMFEVLSPFQMQLLQQIKRTLQIYCTASGREKVDYIVLCGGTAKLEGMVELLTNELGTHTIVADPFQGCLHADDVMKGQLQPNISKYMVACGLALRSYAQWRT” as the sequence, how does the “soluble on expression in E. coli” value read?
Its value is “not soluble”.

Which “soluble on expression in E. coli” value does the source give for “MKGRDVVLGLLMQKELSGYDIKIVFEDVFTHFFDGSFGMIYPTLRQLENEGKIKKEVVMQEGKPNKKMYFITDEGREEFYQYMQTPVEKDVLRSDFLMRMYFGNYSDDVTIKKWIKDEIERKEAYIADLRLKYEKWRVGITFVEEISLDVGIASYSAQVETLKKKLEELEAKENNKTEE” here?
Its value is “soluble”.

Which “soluble on expression in E. coli” value does the source give for “MAVMKVLIVEDETAAYENLTDILTEITPDIRIMANTESVTQTVGWLQSNPAPDLIFMDIHLSDGSAFAIFDRIELETPIIFTTAYDRYAIEAFKVNSIDYLLKPVKVEDVEHALEKYSKLTRQDLLQYLSQLTLLKPAPRYKDKLLIAHKDKLLPVNIKNISYFYATGKNTYVCLKDGNRYPYSKTLEQIASSLNPEDFIRANKQFIVARDSVTDITIWFDNRLLITLDTEVPERIYVSKNKASEFKTWLVNDK” here?
Its value is “not soluble”.

For “MPKESLLRELSALREQLEQQPPLNEEQRAELELLIRDIELKLANEDALNEGSLVDGVNLAVERFEVSHPTLAGTLRSIVQSLANMGI”, which “soluble on expression in E. coli” value is on record?
Its value is “not soluble”.

For “MGSDKIHHHHHHMLFCSMNAVRNWYILPVFFITSFISKGQNGALIPDTYDQFFQNYYLINPANTDTAGVILHMGHKSQLGVFRGVRQTYFDANFRIQSNRFNRAHSVGIQLFNNSEGDFFSKNRIYGRYAFDIHLSETYFLSAGIAVGAVSYAFKATQSSAGGSDLAYDGSTGLWVVGRKLKAGISIQQISQGKLSPLGQIFELRRQYNANVSYLFFINPDIQLTTHVWYKYQQHNMHDVQVAAIITLQNLVEFGGNYKYQKGVVLIGGLKDIHIGTSSLSLAMSYSTGILNYLAKGDNAVEVFLTYSR”, which “soluble on expression in E. coli” value is on record?
The value was “not soluble”.

For “MGELFLVGMGPGDLPGLTQRAREALEGAEVVIGYSTYVKLLEEMGLLAGKEVVRKGMTEELDRAEEALERALSGQRVALVSGGDPGIYGMAAPVLELMEERGLKRVDGGVGLPGRFAGEEGEVFLAVIPGVTAANAVASLLESPLAHDTCLISLSDLLTPWPLIERRLHAAGQGDFVVVLYNPQSKRRDWQLRKSAEILLEYRPKETPAALVKSAYRKRQEVALTTLEGLREAEAGMLTTVVIGNRQSRFYEGTFLTPRGYALKYDLDTKEALPGETPGLSLVSPEGASSGRRDA”, which “soluble on expression in E. coli” value is on record?
Its value is “soluble”.

For “SSNFSSERIRYAKWFLEHGFNIIPIDPESKKPVLKEWQKYSHEMPSDEEKQRFLKMIEEGYNYAIPGGQKGLVILDFESKEKLKAWIGESALEELCRKTLCTNTVHGGIHIYVLSNDIPPHKINPLFEENGKGIIDLQSYNSYVLGLGSCVNHLHCTTDKCPWKEQNYTTCYTLYNELKEISKVDLKSLLRFLAEKGKRLGITLSKTAKEWLEGKKEEEDTVVEFEELRKELVKRDSGKPVEKIKEEICTKSPPKLIKEIICENKTYADVNIDRSRGDWHVILYLMKHGVTDPDKILELLPRDSKAKENEKWNTQKYFVITLSKAWSVVKKYLEA”, which “soluble on expression in E. coli” value is on record?
The value was “soluble”.

With “MSLSGLPESTLRYYEQIGIIDPIARDPSSGHRVYSDKDIESLTTIACLAATGMPLESMREYLKNRFDGPEGARRQIELLDAQSLRLAANAEALRIQQAYVSLKSLYWRAIAEGHEDEANRILEENKDVIENVKKQPGKGAIAREGHHHHHH” as the sequence, how does the “soluble on expression in E. coli” value read?
The value was “soluble”.

For “MKDILIIAGPTAVGKTDISIKIAQKMNGEIISADSMQIYKYMDIGSAKVTKEEMKGIKHHLIDVVDPSEEFSVASFKKMAQNAIDDITSRKKYPIIVGGTGLYINSLICNYDFTGAYKDEAYRESLQAIAKDKGKEYLHEKLKNIDIDSYKKLYPNDLKRVIRALEVYKITGKTISELNSNVDLYDIPYNIHYFILNMDRQKLYERINLRVDIMLRNGLVDEVIKLRDMGYNSNMQSMKGIGYKEILSYLEGCITLEEAVELIKKGSRHYAKRQLTWFRKDERAVWINKDIYKNDDDIVFKILSSIEEILEHHHHHH”, which “soluble on expression in E. coli” value is on record?
Its value is “not soluble”.

Which “soluble on expression in E. coli” value does the source give for “GPGSMSESCSGDYYHFVTQRSQAAEITLPIPSFCKPLAASVQPFGEGKAGLLASFFDPEQHAWVVRQLPVQESWSHQPPPSLTVRVATLVDPANLYELRVSLSSVLDGVDNDDLCALQRRSQIYGLVVEEHLADKSGAALRSAGAEGRLPQLREAVTLAAPVDVMNGFVLTGGGFLSDFPVLRDGPALPRSMNTVYDDILAGEDFCGPPMPAGGARFAGTDSAAHTSGGRGSDSPVNSNEPREYTAWSVTAAANAGLACISMGLRRRSPIEWPQLQSESQHTHSASPRERTGPGTSLAISPGPLRAKPPPSVVSDTGALAVYQCTGVPVSGLRPNEHGDGGNGAHGVVSAYSSAAVSTMAARPLLETLTLRGEVDVKLSRRDGEEWGISLPPPHGSLKFSMGPNRELVAAARRYFYCE” here?
Its value is “not soluble”.

With “MGSDKIHHHHHHENLYFQGMRYLSKDILEEVITQRPSDSYKSNFGRVVLIGGNRQYGGAIIMSTEACINSGAGLTTVITDVKNHGPLHARCPEAMVVGFEETVLLTNVVEQADVILIGPGLGLDATAQQILKMVLAQHQKQQWLIIDGSAITLFSQGNFSLTYPEKVVFTPHQMEWQRLSHLPIEQQTLANNQRQQAKLGSTIVLKSHRTTIFHAGEPFQNTGGNPGMATGGTGDTLAGIIAGFLAQFKPTIETIAGAVYLHSLIGDDLAKTDYVVLPTKISQALPTYMKKYAQPHTAPDSELLEQKRSR” as the sequence, how does the “soluble on expression in E. coli” value read?
The value was “soluble”.

For “MSLSRGAGEAAYRQRLVAVGDLHGDIDNAKKTLQMARIIDDDSKWVASTDILVQTGDIVDRGAYADDIYRLMQSLRGQAASQGGKVVSILGNHEVMNAIGDWRYVTKGDIARFGGTKSRQHALSAEGWLGQEWLANYSTTALVPISPYPSSPTFSFTHGSLRPSYANLTPYPAAINDLGHSLLTKALTPPMAPPYPPNPYSGLPKGTTHEEADLYAEGGPLWWRGLAEREEAQVCEWAKNLKQKIGARRIIGGHTPNFEKIVARCNASVIIIDTGISSAYGGVLSALEIVYTLTPVDRRGRDHSQDPLLLSTSSESIAGLKGRFVEREEVHAIYEHSRKWLALEEREVVLDEGHHHHHH”, which “soluble on expression in E. coli” value is on record?
Its value is “not soluble”.

For “SFFTCGPNEAMVVSGFCRSPPVMVAGGRVFVLPCIQQIQRISLNTLTLNVKSEKVYTRHGVPISVTGIAQVKIQGQNKEMLAAACQMFLGKTEAEIAHIALETLEGHQRAIMAHMTVEEIYKDRQKFSEQVFKVASSDLVNMGISVVSYTLKDIHDDQDYLHSLGKARTAQVQKDARIGEAEAKRDAGIREAKAKQEKVSAQYLSEIEMAKAQRDYELKKAAYDIEVNTRRAQADLAYQLQVAKTKQQIEEQRVQVQVVERAQQVAVQEQEIARREKELEARVRKPAEAERYKLERLAEAEKSQLIMQAEAEAASVRMRGEAEAFAIGARARAEAEQMAKKAEAFQLYQEAAQLDMLLEKLPQVAEEISGPLTSANKITLVSSGSGTMGAAKVTGEVLDILTRLPESVERLTGVSISQVNHKPLRTA”, which “soluble on expression in E. coli” value is on record?
Its value is “not soluble”.

With “MGSDKIHHHHHHMQQAHNDGVVSAMSQATDARLAAQDLARQLLHPHLGFVLFFCSAEYDLQALGEALEQDFGGIRLVGCTSAGEITPLGYGRNCVTAVGFDHRHFSIATALIDEMERFSLIDAQQMVERLVGTCRSNTLAPIKGHSFALTLLDGLSSREEMVLAALSAALGDIPHFGGSAGDDNYLNRTHVYYGGAFHNGAAVVVLVNTWLDFEVFTTHHILPRQEKLVVTGADSAQRRVFELNAEPAAEEYARHIGVPVAALDHRVFAAHPLAVRIHDQYYVRAIQQMHPDLSLSFYCAVENGIVLTAMTPGPLLPNLHQLFDGLHQRLGPLLLTIGCDCFLRRLELEAHRGLEPVGAFLREQRVIGFNTYGEQFNGMHINQTFTGVAIARNRPPVGR” as the sequence, how does the “soluble on expression in E. coli” value read?
Its value is “not soluble”.

For “QLKNNAAIQIDRVDNTEITETVSFDAEPTYVDDPEAPAGDETVVEEGAPGTKEVTRTVTTVNGQEESSTVINEVEITAAKPATISRGTKT”, which “soluble on expression in E. coli” value is on record?
The value was “not soluble”.

For “MPKAEGRIFDFKGHDAIRTDFLEAIDFDGKDEYIKIETDEFSAVCPFSGLPDIGRVIIEYYPDGGKIVELKSLKYYFVSFRNVGIYQEEATKRIYEDLKNLLKTDRIRVTVIYNIRGGIKTTTQMGSLEGKKSGEVE”, which “soluble on expression in E. coli” value is on record?
The value was “not soluble”.

For “SYDSPDYTDESCTFKISLRNFRSILSWELKNHSIVPTHYTLLYTIMSKPEDLKVVKNCANTTRSFCDLTDEWRSTHEAYVTVLEGFSGNTTLFSCSHNFWLAIDMSFEPPEFEIVGFTNHINVMVKFPSIVEEELQFDLSLVIEEQSEGIVKKHKPEIKGNMSGNFTYIIDKLIPNTNYCVSVYLEHSDEQAVIKSPLKCTLLPPGQESEFS”, which “soluble on expression in E. coli” value is on record?
The value was “soluble”.

With “MGSDKIHHHHHHMNPQPSGATVDKGSVNPEQISIKTFGGLGLSYLNSPMTILWESQKARILFCYLLISYDQWLHRDKLIDMLWPGCDPVSGAKNFKTTLSRLRKSFMGPRSINPIMTLGEAIRLDFNIFSLDSSQFKGYAQTGIKMLARGDISGARRYLEAAQDEYSGEFLPEEPFDHHICAERAELERLHESVLTSLQKVYQLEGNNDAVEAISFLKAVHTNS” as the sequence, how does the “soluble on expression in E. coli” value read?
Its value is “not soluble”.

For “NYDPFVRHSVTVKADRKTAFKTFLEGFPEWWPNNFRTTKVGAPLGVDKKGGRWYEIDEQGEEHTFGLIRKVDEPDTLVIGWRLNGFGRIDPDNSSEFTVTFVADGQKKTRVDVEHTHFDRMGTKHAKRVRNGMDKGWPTILQSFQDKIDEEGAKK”, which “soluble on expression in E. coli” value is on record?
The value was “soluble”.

With “SADDKDVLRDVWFGRIPACFTLSPDETTEREAEPYYLLLPRVSYLTLVTDKVKKHFLKVMKAEDVEEMWFEHEGTPLKWHYPIGVLFDLHASNSALPWNVTVHFKNFPEQDLLHCSTNSVIEAHFMSCIKEADALKHKGQVINDMQKKDHKQLWMGLQNDKFDQFWAMNRKLMEYPTEEGGFRYIPFRIYQTMSDRPFIQTLFRPVSSEGQALTLGDLLKELFPAAIEDEPKKFQVMIHGIEPLLETPIQWLSEHLSHPDNFLHISIIPAPSD” as the sequence, how does the “soluble on expression in E. coli” value read?
Its value is “soluble”.

For “ITASGENRNAINDLLGAMCYDEETARTYQGYVAELDNPHTPETEEYGISSFVFKGDRPFDRQRLIAALRSTRGIVRSKGHCWISDRIDMVQVWHQAGPDLRIAPAGYWQSAGITPSNEIVVIGVNFDHAQAQQLLNDAMLSDSEVQQLLSTADAAKS”, which “soluble on expression in E. coli” value is on record?
The value was “not soluble”.
